Results taken from publication PMC6327041 (Nature Communications, 2019).

Molecular target: T1, KDM5A1-797 (Homo sapiens, UniProt P29375)
T1 construct: KDM5A1-797 was cloned into a pFASTBAC HTA vector; His (N, cleaved yes); made in house; host or cells: Sf21 insect cells (baculovirus)
T1 sequence (P29375 1-797): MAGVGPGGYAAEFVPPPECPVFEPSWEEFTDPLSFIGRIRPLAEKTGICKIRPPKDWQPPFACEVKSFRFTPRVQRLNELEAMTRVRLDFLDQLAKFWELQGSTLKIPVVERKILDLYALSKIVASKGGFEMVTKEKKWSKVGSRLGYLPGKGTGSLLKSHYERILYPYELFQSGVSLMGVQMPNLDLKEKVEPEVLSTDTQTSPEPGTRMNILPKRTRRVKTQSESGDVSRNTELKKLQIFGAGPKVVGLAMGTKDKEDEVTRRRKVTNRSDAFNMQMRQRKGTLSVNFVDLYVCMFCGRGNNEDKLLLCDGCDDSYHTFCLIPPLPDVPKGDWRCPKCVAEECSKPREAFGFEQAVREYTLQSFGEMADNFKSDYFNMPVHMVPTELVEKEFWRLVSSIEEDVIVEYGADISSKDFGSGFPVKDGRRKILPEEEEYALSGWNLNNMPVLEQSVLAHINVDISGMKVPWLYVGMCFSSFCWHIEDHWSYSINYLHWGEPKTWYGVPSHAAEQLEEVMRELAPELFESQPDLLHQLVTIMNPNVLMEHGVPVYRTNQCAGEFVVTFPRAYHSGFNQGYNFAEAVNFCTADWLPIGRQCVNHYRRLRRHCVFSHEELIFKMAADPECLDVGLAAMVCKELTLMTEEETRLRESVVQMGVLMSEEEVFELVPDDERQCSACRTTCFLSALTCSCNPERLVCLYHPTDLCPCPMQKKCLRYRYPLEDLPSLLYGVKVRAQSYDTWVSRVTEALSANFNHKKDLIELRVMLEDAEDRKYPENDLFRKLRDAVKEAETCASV
Assay: HDX-MS of KDM5A with peptides
Experimental: Solution-phase amide HDX experiments were carried out with a fully automated system (CTC HTS PAL, LEAP Technologies, Carrboro, NC; housed inside a 4 °C cabinet).
Peptides were identified using tandem MS (MS^2 or MS/MS) experiments performed with a LTQ linear ion trap mass spectrometer (LTQ Orbitrap XL with ETD, Thermo Fisher, San Jose, CA) over a 70 min gradient. Product ion spectra were acquired in a data-dependent mode and the five most abundant ions were selected for the product ion analysis per scan event. The MS/MS *.raw data files were converted to *.mgf files and then submitted to MASCOT ver2.3 (Matrix Science, London, UK) for peptide identification. […]
For differential HDX experiments, 5 μl of 20 μM KDM5A1-797 was diluted to 25 μl with D2O-containing HDX buffer (40 mM HEPES, 50 mM KCl, pH 7.9) and incubated at 4 °C for 10, 30, 60, 900, and 3600 s. […] Percent deuterium exchange values for peptide isotopic envelopes at each time point were calculated and processed using HDX Workbench. […] The intensity weighted mean m/z centroid value of each peptide envelope was calculated and subsequently converted into a percentage of deuterium incorporation. Statistical significance for the differential HDX data is determined by an unpaired t-test for each time point, a procedure that is integrated into the HDX Workbench software. […]

Row | perturbation of deuterium uptake (Ac-H3K4me3 21mer alone (500 µM) vs apo, 4 °C, triplicate) | Substance | deuterium exchange of PHD1 residues Gly300-Ala342, both peptides (H3 10mer (100 µM) and Ac-H3K4me3 21mer (500 µM) both present vs apo)
1 | no perturbations are observed | Ac-H3K4me3 21mer: N-terminally acetylated 21mer H3K4me3 peptide, catalytic domain substrate | –
2 | – | H3: unmodified N-terminal H3 tail 10mer peptide (H3 Ala1-Ser10), PHD1 effector ligand | increased protection observed in the PHD1 domain
